From patent WO2020259667A1 (dated 2020)

T1: human OX40 on Jurkat-NF-Kb luc-hOX40 cells (human, UniProt P43489 29-277)
T1 sequence (looked up): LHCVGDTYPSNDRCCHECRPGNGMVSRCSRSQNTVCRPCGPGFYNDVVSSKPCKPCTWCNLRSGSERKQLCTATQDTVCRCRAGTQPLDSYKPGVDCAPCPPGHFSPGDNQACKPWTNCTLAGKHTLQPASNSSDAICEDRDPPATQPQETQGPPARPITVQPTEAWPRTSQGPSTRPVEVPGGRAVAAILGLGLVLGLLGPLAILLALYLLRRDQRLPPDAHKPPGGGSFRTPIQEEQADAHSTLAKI

T2: human OX40-His protein (Sino Biological 10481-H08H) (human, UniProt P43489 29-216)
T2 construct: Bought protein, used as the analyte in Biacore; not shown: His tag
T2 sequence (looked up): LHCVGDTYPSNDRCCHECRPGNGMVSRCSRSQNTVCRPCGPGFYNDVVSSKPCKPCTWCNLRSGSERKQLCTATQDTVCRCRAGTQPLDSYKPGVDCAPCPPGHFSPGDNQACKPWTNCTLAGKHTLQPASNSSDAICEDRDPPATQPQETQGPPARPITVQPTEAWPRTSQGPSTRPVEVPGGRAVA

T3: human OX40-Fc, biotin-labelled (OX40 Leu 29-Ala 216, Accession NP_003318, fused with Fc); Acro Biosystems … (human, UniProt P43489 29-216, labelled with biotin (sites not given))
T3 construct: range 29-216; Bought from Acro Biosystems and expressed in HEK293; also called human Bio-OX40-FC; not shown: Fc tag of the bought protein
T3 sequence (looked up): T2 sequence (looked up)

B1: chimeric antibody Ch2G3 (m2G3 variable regions with human IgG1 and human Kappa constant regions) (antibody, from another filing, V domains shown)
VH: QVQLKESGPGLVASSQSLSITCTVSGFSLSRYSVHWVRQPPGKGLEWLGMIWDGGNTDYNSALKSRLSISKDNSKSQVFLKMNSLQTDDTAMYYCARNPLYFSYAMDYWGQGTSVTVSS
VL: DIQMTQSTSSLSASLGDRVTISCRASQDISNYLNWYQQKPDGTVKLLIIYTSRLQSGVPSRFSGSGSGTDYSLTISNLEQEDIATYFCQQVNTFPFTFGSGTKLEIK
B2: 2G3 (humanized anti-OX40 antibody, hu2G3 VH1.1 + hu2G3 VL1) (antibody, human IgG1, kappa, V domains shown)
VH: QVQLQESGPGLVKPSETLSLTCTVSGYSISRYSVHWVRQPPGKGLEWIGMIWDGGNTDYNAALKSRFTISRDNAKNTLYLQMNSLRAEDTAVYYCARNPLYFSYAMDYWGQGTLVTVSS
VL: DIQMTQSPSSLSASVGDRVTITCRASQDISNYLNWYQQKPDQSPKLLIIYTSRLQSGVPSRFSGSGSGTDYTLTISSLQPEDFATYYCQQVNTFPFTFGQGTKLEIKR
notes: Format is IgG1/kappa; also called drug A; humanized 2G3 antibody

Columns and labels:
[1] = biological target: human OX40 on Jurkat-NF-Kb luc-hOX40 cells (human) (UniProt P43489); test: cell-based or functional assay
[2] = biological target: T1, human OX40 on Jurkat-NF-Kb luc-hOX40 …; test: cell-based or functional assay
[3] = biological target: T2, human OX40-His protein (Sino Biological …); test: SPR, Biacore T200; antibody amine-coupled to a CM5 chip, human OX40-His as analyte, 1:1 Langmuir model
[4] = biological target: T3, human OX40-Fc, biotin-labelled (OX40 …); test: blocking ELISA: OX40 ligand coated on the plate, serially diluted 2G3 pre-incubated with biotinylated human OX40-Fc, SA-HRP detection; competitor OX40L

| EC50(nM), luciferase reporter gene (RLU) in Jurkat-NF-Kb luc-hOX40 cells mixed with Raji cells on an anti-CD3 coated plate [1] [nM] | EC50(nM), luciferase reporter gene (RLU) in Jurkat-NF-Kb luc-hOX40 cells mixed with Raji cells on an anti-CD3 coated plate [2] [nM] | Kd [3] [nM] | koff [3] [s⁻¹] | kon [3] [M⁻¹ s⁻¹] | IC50 [4] [nM] | Binder |
| --- | --- | --- | --- | --- | --- | --- |
| 0.637 |  |  |  |  |  | B1 |
|  | 2.29 | 4.63 | 0.00202 | 437000 | 1.88 | B2 |
